± gives the uncertainty stated by the source.
Assay: self-splicing fitness, log relative to wild type (ln ratio); higher = more splicing; Tetrahymena group I intron in knt gene, E. coli kanamycin selection, DiMSum; sequences stand for … in CUCUCU…GGAGGGAAAAGUUAUCAGGCAUGCACCUGGUAGCUAGUCUUUAAACCAAUAGAUUGCAUCGGUUUAAAAGGCAAGACCGUCAAAUUGCGGGAAAGGGGUCAACAGCCGUUCAGUACCAAGUCUCAGGGGAAACUUUGAGAUGGCCUUGCAAAGGGUAUGGUAAUAAGCUGACGGACAUGGUCCUAACCACGCAGCCAAGUCCUAAGUCAACAGAUCUUCUGUUGAUAUGGAUGCAGUUCACAGACUAAAUGUCGGUCGGGGAAGAUGUAUUCUUCUCAUAAGAUAUAGUCGGACCUCUCCUUAAUGGGAGCUAGCGGAUGAAGUGAUGCAACACUGGAGCCGCUGGGAACUAAUUUGUAUGCGAAAGUAUAUUGAUUAGUUUUGGAGUACUCGUGGUCG
How it was run: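 Six replicate transformations of E. coli BL21(DE3) with a pET-22b(+) library were grown overnight at 37°C or 30°C. The library randomised all eight P1ex-region intron nucleotides, the intron lying in the knt kanamycin-resistance gene, and plates were LB agar with or without 25 μg/mL kanamycin plus 100 μg/mL carbenicillin, 50 μM IPTG and 0.2% rhamnose. Pooled colonies were amplicon-sequenced on an Illumina HiSeq 2500, and fitness is the DiMSum error-weighted combination of wild-type-normalised replicate fold changes, kanamycin versus none.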

Sequence | self-splicing fitness (ln) (30 °C) | self-splicing fitness (ln) (37 °C)
UGUGAGCAAUAUUACGGACU | -2.24 ± 0.22 | -0.378 ± 0.22
UAAUAGCAAUAUUACGAAGG | -3.08 ± 0.17 | -1.6 ± 0.17
GCUGAGCAAUAUUACGUCGU | -2.05 ± 0.097 | -1.52 ± 0.12
CAGCAGCAAUAUUACGAGCU | -3.07 ± 0.21 | -1.76 ± 0.2
GAAAAGCAAUAUUACGCAAU | -2.28 ± 0.12 | -1.41 ± 0.17
AGAAAGCAAUAUUACGCCCU | 0.0807 ± 0.13 | 0.131 ± 0.14
GAAAAGCAAUAUUACGCCGU | -1.75 ± 0.097 | -0.396 ± 0.1
AAUAAGCAAUAUUACGCGCC | -0.204 ± 0.15 | -0.572 ± 0.16
AUGCAGCAAUAUUACGGGCG | 0.108 ± 0.089 | 0.464 ± 0.11
UGUCAGCAAUAUUACGAGCC | -1.74 ± 0.24 | -0.631 ± 0.27
GUCGAGCAAUAUUACGGAGC | -2.93 ± 0.2 | -1.24 ± 0.15
CGGAAGCAAUAUUACGUUGA | -3.33 ± 0.16 | -2.65 ± 0.15
GCAUAGCAAUAUUACGUUUG | -3.21 ± 0.13 | -1.91 ± 0.15
AACCAGCAAUAUUACGACCG | -0.744 ± 0.087 | -0.237 ± 0.14
UUGCAGCAAUAUUACGACCG | -0.719 ± 0.065 | -0.144 ± 0.093
GCAGAGCAAUAUUACGGACC | -3.65 ± 0.37 | -0.0809 ± 0.29
UGAUAGCAAUAUUACGUUAC | -3.01 ± 0.31 | -1.08 ± 0.22
CUUCAGCAAUAUUACGCAAU | -4.04 ± 0.37 | -2.04 ± 0.3
ACCCAGCAAUAUUACGAGCA | -0.745 ± 0.08 | -1.31 ± 0.088

Sequence | self-splicing fitness (ln) (30 °C) | self-splicing fitness (ln) (37 °C)
GACUAGCAAUAUUACGCGCG | 0.097 ± 0.11 | -0.349 ± 0.11
GUACAGCAAUAUUACGUGCC | -2.93 ± 0.13 | -2.54 ± 0.22
AAGAAGCAAUAUUACGCUGU | -2.63 ± 0.13 | -1.28 ± 0.12
UUUCAGCAAUAUUACGCAUU | -1.93 ± 0.14 | -1.08 ± 0.11
UGACAGCAAUAUUACGGAAG | -2.29 ± 0.11 | -1.19 ± 0.12
CCAGAGCAAUAUUACGAUUG | -1.42 ± 0.11 | -0.92 ± 0.14
CCUUAGCAAUAUUACGAAAG | -1.96 ± 0.11 | -1.45 ± 0.089
GUAUAGCAAUAUUACGGCUC | 0.0185 ± 0.15 | 0.629 ± 0.15
ACUUAGCAAUAUUACGGAUA | -3.09 ± 0.28 | -1.15 ± 0.18
GGAUAGCAAUAUUACGGGGA | -3.41 ± 0.29 | -3.52 ± 0.42
GGGGAGCAAUAUUACGGAAU | – | -1.68 ± 0.33
CAUAAGCAAUAUUACGCGGG | -1.6 ± 0.17 | -2.18 ± 0.25
CUAAAGCAAUAUUACGAUCC | -2.81 ± 0.27 | -1.13 ± 0.36
CAGCAGCAAUAUUACGGCAC | -3.25 ± 0.15 | -0.851 ± 0.17
UCUAAGCAAUAUUACGAUGA | -0.162 ± 0.058 | 0.0109 ± 0.072
GGUGAGCAAUAUUACGGGGU | -3.31 ± 0.17 | -2.94 ± 0.26
CAGCAGCAAUAUUACGGACG | -0.284 ± 0.069 | -0.581 ± 0.081
CCCCAGCAAUAUUACGCUUA | -3.59 ± 0.17 | -2.66 ± 0.17
CCUAAGCAAUAUUACGAGGA | -1.99 ± 0.15 | -1.85 ± 0.13

Reference: the supplement of paper PMC7877785
